What was measured:
db/db mice = assay: Acute glucose tolerance test after i.p. injection of human CYSTM1 in db/db mice; format: in vivo, mouse; conditions: acute i.p. injection 1 mg/kg BW, vs PBS
[1] = tested on: diet-induced obesity and diabetes mouse model; assay: Acute glucose tolerance test after i.p. injection or oral gavage of recombinant CYSTM1 in high-fat diet mice; format: in vivo; conditions: 1 h before GTT, obese mice, vs PBS
Protocol: In this example, an acute intraperitoneal (i.p.) glucose tolerance test (GTT) was performed using different administration methods of delivering recombinant CYSTM1 proteins. 8-week-old male C57BL/6J mice fed a high-fat diet for 12 weeks (diet-induced obesity and diabetes mouse model) were treated with different concentrations of CYSTM1 through i.p. injection (FIG. 3A-3C) or oral administration (FIGS. 3D-3F) for 1 h following a GTT by intraperitoneal injections of […]. Circulating CYSTM1 and insulin levels were determined by enzyme-linked immunosorbent assay (ELISA) (ImmunoDiagnostics, Hong Kong), and the glucose level was determined by a glucometer (Roche Diabetes Care, Indianapolis, IN, USA). […] As human and mouse CYSTM1 share high identity (89.4%) and similarity (90.4%), and human CYSTM1 appears to also lower circulating glucose in the db/db mice (a genetic mouse model of obesity and diabetes), it could be expected that human CYSTM1 may also function similarly with respect to human circulating glucose in an obese, diabetic human subject.

[2] = tested on: isolated pancreatic islet cells; assay: Insulin secretion from mouse isolated pancreatic islets; format: cell-based; conditions: CYSTM1 1-1000 nM, 5.6 mM then 16.7 mM glucose, 45 min
Protocol: (§1) FIGS. 6A-6C show the change in insulin secretion from different pancreatic cells in a low (5.6 mM) and high (16.7 mM) glucose level treated by different concentrations of CYSTM1: FIG. 6A: MIN6 cells; FIG. 6B: β-TC-6 cells; FIG. 6C: mouse-isolated pancreatic islets (n=5-6 per cell type);
(§2) In this example, in vitro assays of insulin secretion in response to CYSTM1 treatment in low and high-glucose environments on the pancreatic cell lines (MIN6 and B-TC-6) and mouse isolated pancreatic islets were performed. Mouse insulinoma, MIN6 cells, were cultured in DMEM (Gibco) supplemented with 10% (v/v) FBS (Lonza), 100 U/mL penicillin and […], and 70 μM freshly added β-mercaptoethanol (Gibco) (37° C., 5% CO2). B-TC-6 cells were grown in RPMI 1640 medium (Gibco) containing 5.5 mM glucose and supplemented with 10% (v/v) FBS, 100 U/mL penicillin and […], and 2 mM L-glutamine. […] Following 45 min incubation of KRB solution, each well was removed and the insulin content of each sample was determined by a mouse insulin ELISA kit. The efficacy of CYSTM1 to stimulate insulin secretion was evaluated in each of the pancreatic cell lines: MIN6 cells (FIG. 6A), B-TC-6 cells (FIG. 6B), and isolated pancreatic islet cells (FIG. 6C).

[3] = tested on: STZ-induced diabetic male mice; assay: Daily oral CYSTM1 in STZ-induced diabetic mice; format: in vivo, mouse; conditions: vs saline
Protocol: Turning to FIG. 7J, standard chow diet (STC) mice were injected with streptozotocin (STZ) to induce diabetes for five days and then treated with either CYSTM1 protein (1 mg/kg) or saline daily. The group of mice treated with saline were regarded as the control group.

mouse primary adipocytes = assay: 2-NBDG glucose uptake in mouse primary adipocytes; format: cell-based; conditions: mouse primary adipocytes, CYSTM1 1-1000 nM, 1 h
Protocol: (§3) To determine whether CYSTM1 can increase glucose uptake in adipocytes, in vitro assays of 2-NBDG uptake in response to CYSTM1 treatment and potential inhibitors in 3T3-L1 adipocytes and mouse primary adipocytes were performed. 3T3-L1 preadipocytes were maintained in Dulbecco's modified Eagle's medium (DMEM) supplemented with 10% fetal bovine serum. Two days after confluence, 3T3-L1 cells were induced to differentiation using the standard adipogenic cocktail (0.5 mM IBMX, 1 μM dexamethasone and 10 μg/ml insulin) that was applied for 4 days and followed by 10 μg/ml insulin treatment for additional 4 days. The culture medium was changed every other day. The differentiated cells were maintained in normal serum containing DMEM. Mouse primary adipocytes were isolated from 10 to 12-week-old male C57BL/6J mice using a collagenase digestion protocol as described, briefly, white fat pads were removed, minced and digested using collagenase for 60-90 min at 37° C. in Krebs-Ringers phosphate HEPES buffer (KRPH) (15 mM HEPES, pH 7.4, 118 mM NaCl, 4.8 mM KCl, 1.2 mM MgSO4, 1.3 mM CaCl2, 1.2 mM KHPO3, 0.1% BSA). The stromal vascular fraction was separated from the adipocytes and cultured using DMEM and differentiated the same as 3T3-L1 adipocytes as described above. […] NBDG uptake was measured using a fluorescent microplate reader (Thermo Scientific Varioskan LUX Multimode Microplate Reader).

[4] = tested on: MIN6 pancreatic beta cell; assay: Insulin secretion in MIN6 cells with GLP-1R antagonist exendin (9-39); format: cell-based, mouse; conditions: CYSTM1 10 nM, exendin (9-39) 10 nM
MIN6 cells = assay: Insulin secretion from MIN6 cells at low and high glucose; format: cell-based, mouse; conditions: CYSTM1 1-1000 nM, 5.6 mM or 16.7 mM glucose, 45 min
Protocol: as §1, §2

[5] = tested on: high fat diet-induced obese (HFD) mice; assay: Chronic daily oral gavage of CYSTM1 in high-fat diet-induced obese mice; format: in vivo, mouse
Protocol: In this example, 8-week-old male C57BL/6J mice fed with a high-fat diet (HFD) were treated daily with an oral gavage of recombinant CYSTM1 protein (1 mg/kg), and the control group of mice were gavaged with saline daily. CYSTM1 treatment was carried out after 8 weeks of HFD feeding (FIG. 4A).

3T3-L1 adipocytes = assay: 2-NBDG glucose uptake in 3T3-L1 adipocytes; format: cell-based; conditions: 3T3-L1 adipocytes, CYSTM1 1-1000 nM, 1 h
Protocol: as §3

B-TC-6 cells = assay: Insulin secretion from B-TC-6 cells at low and high glucose; format: cell-based; conditions: CYSTM1 1-1000 nM, 5.6 mM or 16.7 mM glucose, 45 min
Protocol: as §1, §2

[6] = i.p. injection of CYSTM1 (0.5 and 1 mg/kg BW)
[7] = oral gavage of CYSTM1 1 mg/kg BW

B1: cysteine rich transmembrane module containing 1 (protein, UniProt Q9H1C7 1-97, looked up)
Cysteine-rich and …: MNQENPPPYPGPGPTAPYPPYPPQPMGPGPMGGPYPPPQGYPYQGYPQYGWQGGPQEPPKTTVYVVEDQRRDELGPSTCLTACWTALCCCCLWDMLT
notes: human CYSTM1, 97 amino acid long peptide
db/db mice
  glucose levels (GTT): lower glucose levels

B2: cysteine rich transmembrane module containing 1 (protein, UniProt Q8K353 1-104, looked up)
Cysteine-rich and …: MNPENPPPYPGPGPTAPYPPYPQQPMGPMGPMGAPPPQGYPYPPPQGYPYQGYPQYGWQGGPQEPPKTTVYVVEDQRRDDLGPSTCLTACWTALCCCCLWDMLT
notes: recombinant mouse CYSTM1 protein, 104 amino acid long glucoregulatory peptide
[1]; [6]
  circulating insulin: increase circulating insulin
  glucose levels (GTT): lower glucose levels
[1]; [7]
  circulating insulin: increase circulating insulin
  glucose levels (GTT): lower glucose levels
[2]
  insulin secretion: concentration-dependent increase in insulin secretion
[3]; 1 mg/kg oral daily
  feeding blood glucose level: significantly lower feeding blood glucose level
[3]; day 15, 1 mg/kg oral daily
  glucose regulation by IPGTT: protects from STZ-induced glucose dysregulation
Mouse primary adipocytes
  glucose (2-NBDG) uptake: concentration-dependent increase
[4]
  insulin secretion induced by CYSTM1 in presence of exendin (9-39): not affected by the presence of exendin (9-39)
MIN6 cells
  insulin secretion: concentration-dependent increase in insulin secretion
[5]; 1 mg/kg oral gavage once daily, HFD mice, vs saline
  feeding blood glucose level: significantly reduced feeding blood glucose level
[5]; day 10, 1 mg/kg oral gavage once daily, HFD mice, vs saline
  fasting insulin concentration: decreased level of fasting insulin concentration
[5]; day 20, 1 mg/kg oral gavage once daily, vs control HFD-fed mice
  glucose homeostasis by IPGTT: better glucose homeostasis
3T3-L1 adipocytes
  glucose (2-NBDG) uptake: concentration-dependent increase
B-TC-6 cells
  insulin secretion: concentration-dependent increase in insulin secretion

Source: patent US20240382561A1, “GLUCOREGULATORY COMPOUND, COMPOSITION AND USES THEREOF” (THE HONG KONG POLYTECHNIC UNIVERSITY, priority 2021, published 2024)
